Among the data in patent publication US20120213763A1 (COUNCIL OF SCIENTIFIC AND INDUSTRIAL RESEARCH, published 2012) are Km values, retold here.

Residue numbers refer to the chain shown, from its start. Several values for one entry are separate records, joined by “and”; a condition that tells them apart may be missing. Equal entries are not always repeated.

The target in data set [1] is T1, PEGylated SK C-Cys (SEQ ID NO 490), Cys at C + 1 position in SK.
T1 chain: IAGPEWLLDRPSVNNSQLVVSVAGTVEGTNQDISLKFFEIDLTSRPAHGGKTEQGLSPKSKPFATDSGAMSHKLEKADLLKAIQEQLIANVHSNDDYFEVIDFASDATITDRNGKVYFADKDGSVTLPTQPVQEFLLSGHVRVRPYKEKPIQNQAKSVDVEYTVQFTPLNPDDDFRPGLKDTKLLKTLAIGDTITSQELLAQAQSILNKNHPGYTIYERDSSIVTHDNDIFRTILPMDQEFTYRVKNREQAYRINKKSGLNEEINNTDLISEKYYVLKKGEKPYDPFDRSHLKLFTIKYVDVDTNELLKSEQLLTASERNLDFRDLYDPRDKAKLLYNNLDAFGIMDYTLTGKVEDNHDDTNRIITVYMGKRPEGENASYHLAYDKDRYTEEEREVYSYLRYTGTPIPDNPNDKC

The target of data set [2] is T2, PEGylated SK C-383 Cys (SEQ ID NO 492), Cys at C + 1 position of SK 1-383, G3.
T2 chain: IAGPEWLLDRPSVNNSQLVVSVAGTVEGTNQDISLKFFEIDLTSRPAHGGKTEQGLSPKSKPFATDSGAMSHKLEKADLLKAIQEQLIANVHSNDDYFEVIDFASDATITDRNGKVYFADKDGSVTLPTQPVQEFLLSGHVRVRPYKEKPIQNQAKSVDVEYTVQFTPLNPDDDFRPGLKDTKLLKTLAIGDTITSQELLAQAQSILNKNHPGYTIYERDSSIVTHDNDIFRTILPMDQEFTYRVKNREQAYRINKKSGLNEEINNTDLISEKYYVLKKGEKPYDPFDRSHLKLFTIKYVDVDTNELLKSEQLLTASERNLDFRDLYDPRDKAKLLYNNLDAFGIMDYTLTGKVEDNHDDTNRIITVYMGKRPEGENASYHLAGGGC

In data set [3] the target is PEG Variants of SEQ ID NO 22 (PEGylated Cysteine variants of fibrin domain fusion form of SK).
Data set [4] concerns the target T3, PEGylated SK Lys 257 Cys (SEQ ID NO 48).
T3 chain: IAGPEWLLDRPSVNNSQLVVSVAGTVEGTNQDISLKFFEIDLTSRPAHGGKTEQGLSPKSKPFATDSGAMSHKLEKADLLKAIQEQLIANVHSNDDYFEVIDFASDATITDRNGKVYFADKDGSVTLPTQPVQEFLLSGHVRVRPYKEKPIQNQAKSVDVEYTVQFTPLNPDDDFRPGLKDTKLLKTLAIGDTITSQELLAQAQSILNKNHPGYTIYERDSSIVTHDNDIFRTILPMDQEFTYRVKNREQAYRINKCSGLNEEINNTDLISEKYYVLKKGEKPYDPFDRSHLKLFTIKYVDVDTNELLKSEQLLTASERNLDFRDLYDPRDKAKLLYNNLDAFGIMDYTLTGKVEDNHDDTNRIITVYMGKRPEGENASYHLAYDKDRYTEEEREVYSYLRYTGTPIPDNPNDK

For data set [5], the target named is T4, PEGylated SK K121C (SEQ ID NO 35).
T4 chain: T3 chain with K121C, C257K

Data set [6] deals with T5, PEGylated SK L179C (SEQ ID NO 41).
T5 chain: T3 chain with L179C, C257K

B1: human plasminogen (HPG) (protein)
chain: KVYLSECKTGNGKNYRGTMSKTKNGITCQKWSSTSPHRPRFSPATHPSEGLEENYCRNPDNDPQGPWCYTTDPEKRYDYCDILECEEECMHCSGENYDGKISKTMSGLECQAWDSQSPHAHGYIPSKFPNKNLKKNYCRNPDRELRPWCFTTDPNKRWELCDIPRCTTPPPSSGPTYQCLKGTGENYRGNVAVTVSGHTCQHWSAQTPHTHNRTPENFPCKNLDENYCRNPDGKRAPWCHTTNSQVRWEYCKIPSCDSSPVSTEQLAPTAPPELTPVVQDCYHGDGQSYRGTSSTTTTGKKCQSWSSMTPHRHQKTPENYPNAGLTMNYCRNPDADKGPWCFTTDPSVRWEYCNLKKCSGTEASVVAPPPVVLLPDVETPSEEDCMFGNGKGYRGKRATTVTGTPCQDWAAQEPHRHSIFTPETNPRAGLEKNYCRNPDGDVGGPWCYTTNPRKLYDYCDVPQCAAPSFDCGKPQVEPKKCPGRVVGGCVAHPHSWPWQVSLRTRFGMHFCGGTLISPEWVLTAAHCLEKSPRPSSYKVILGAHQEVNLEPHVQEIEVSRLFLEPTRKDIALLKLSSPAVITDKVIPACLPSPNYVVADRTECFITGWGETQGTFGAGLLKEAQLPVIENKVCNRYEFLNGRVQSTELCAGHLAGGTDSCQGDSGGPLVCFEKDKYILQGVTSWGLGCARPNKPGVYVRVSRFVTWIEGVMRNN
For B1, the Km in data set [1] was 0.4 µM; in data set [2], 0.4 µM; in data set [3] it was 0.25 µM and 0.6 µM; in data set [4], 0.4 µM; in data set [5], 0.4 µM; in data set [6] it was 0.5 µM.

The Km is the concentration of substrate that gives half-maximal velocity.
